Reference: publication PMC6356061

Key:
[1] = molecular target: NMDA receptor GluN1 subunit (mouse (endogenous in primary cortical neurons)) (UniProt P35438)
[2] = molecular target: NMDA receptor GluN1 subunit (mouse (endogenous in primary cortical neurons)) (UniProt P35438); assay: co-IP; extracts of neurons exposed 10 min to 14.4 nM biotinylated Fib-Tau; immunoprecipitation with anti-α3-NKA, anti-GluA2 or anti-GluN1 and protein G magnetic beads, 4°C; Fib-Tau detected on slot blot with streptavidin-HRP; controls with pre-immune goat or rabbit IgG

change in the amount (fluorescence intensity) of synaptic GluN1-NMDA after exposure of neurons to Fib-Tau (0.36 nM, 60 min); no change [1]: -3.2%
fold enrichment in Tau band intensity over pre-immune IgG control [2]: 1.8 fold
Substance: Biotin-labelled fibrillar Tau-1N3R (Fib-Tau-1N3R) (from UniProt P10636-4 1-381) (natural protein)
